In patent US6946133:

T1: HLA class I-A2 molecule (human), P04439
T1 chain: not shown

B1: prostate specific antigen oligo-epitope peptide (PSA-OP) (peptide)
peptide: FLTPKKLQCVDLHVISNDVCAQVHPQKVTK
modifications: not checked
B2: PSA peptide 141-150 (peptide)
peptide: FLTPKKLQCV
modifications: not checked
B3: PSA peptide 146-154 (peptide)
peptide: KLQCVDLHV
modifications: not checked

What was measured:
[1] = molecular target: T1, HLA class I-A2 molecule (human), P04439; assay: T2 binding assay, peptide 50 µg/ml for 24 h, anti-HLA-A2 mAb, flow cytometry; cut off for positivity 100
[2] = molecular target: T1, HLA class I-A2 molecule (human), P04439; assay: T2 cell binding assay, peptide 50 µg/ml, HLA-A2 upregulation read with MAb A2,69 by flow cytometry

| Binder | T2 binding, relative fluorescence (mean intensity) [1] | mean channel fluorescent intensity [2] |
| --- | --- | --- |
| B1 | 63.3 | – |
| B2 | 128 | 230 |
| B3 | – | 224 |
